The values that follow come from US20260070987A1.

The labels stand for the following.
B1: equine IgG4 WT (antibody, part only; not given: Variable domains; allotype unconfirmed, not shown: another chain or arm of the molecule)
constant: ASTTAPKVFPLASHSAATSGSTVALGCLVSSYFPEPVTVSWNSGALTSGVHTFPSVLQSSGLYSLSSMVTVPASSLKSQTYICNVAHPASSTKVDKKIVIKECNGGCPAECLQVGPSVFIFPPKPKDVLMISRTPTVTCVVVDVGHDFPDVQFNWYVDGVETHTATTEPKQEQFNSTYRVVSVLPIQHKDWLSGKEFKCKVNNKALPAPVERTISKPTGQPREPQVYVLAPHRDELSKNKVSVTCLVKDFYPTDIDIEWKSNGQPEPETKYSTTPAQLDSDGSYFLYSKLTVETNRWQQGTTFTCAVMHEALHNHYTEKSVSKSPGK
B2: equine IgG4 K311P (antibody, part only; not given: Variable domains, not shown: another chain or arm of the molecule)
constant: B1 constant with K189P
B3: equine IgG4 K311N (antibody, part only; not given: variable domains, not shown: another chain or arm of the molecule)
constant: B1 constant with K189N
B4: equine IgG4 K311H (antibody, part only; not given: variable domains, not shown: another chain or arm of the molecule; small tags and cut ends)
constant: B1 constant with K189H
B5: equine IgG4 K311G (antibody, part only; not given: variable domains, not shown: another chain or arm of the molecule; small tags and cut ends)
constant: B1 constant with K189G
B6: equine IgG4 K311M (antibody, part only; not given: variable domains, not shown: another chain or arm of the molecule)
constant: B1 constant with K189M
B7: equine IgG4 K311C (antibody, part only; not given: variable domains, not shown: another chain or arm of the molecule; small tags and cut ends)
constant: B1 constant with K189C
B8: equine IgG4 K311F (antibody, part only; not given: variable domains, not shown: another chain or arm of the molecule; small tags and cut ends)
constant: B1 constant with K189F
B9: equine IgG4 K311A (antibody, part only; not given: variable domains, not shown: another chain or arm of the molecule)
constant: B1 constant with K189A
B10: equine IgG4 K311I (antibody, part only; not given: variable domains, not shown: another chain or arm of the molecule; small tags and cut ends)
constant: B1 constant with K189I
B11: equine IgG4 K311L (antibody, part only; not given: Variable domains, not shown: another chain or arm of the molecule)
constant: B1 constant with K189L
B12: equine IgG4 K311D (antibody, part only; not given: variable domains, not shown: another chain or arm of the molecule; small tags and cut ends)
constant: B1 constant with K189D
B13: equine IgG4 K311E (antibody, part only; not given: variable domains, not shown: another chain or arm of the molecule; small tags and cut ends)
constant: B1 constant with K189E
B14: equine IgG1 WT (antibody, part only; not given: Variable domains, not shown: another chain or arm of the molecule)
constant: ASTTAPKVFALAPGCGTTSDSTVALGCLVSGYFPEPVKVSWNSGSLTSGVHTFPSVLQSSGFYSLSSMVTVPASTWTSETYICNVVHAASNFKVDKRIEPIPDNHQKVCDMSKCPKCPAPELLGGPSVFIFPPNPKDTLMITRTPEVTCVVVDVSQENPDVKFNWYMDGVEVRTATTRPKEEQFNSTYRVVSVLRIQHQDWLSGKEFKCKVNNQALPQPIERTITKTKGRSQEPQVYVLAPHPDELSKSKVSVTCLVKDFYPPEINIEWQSNGQPELETKYSTTQAQQDSDGSYFLYSKLSVDRNRWQQGTTFTCGVMHEALHNHYTQKNVSKNPGK
B15: equine IgG1 N434R (antibody, part only; not given: variable domains, not shown: another chain or arm of the molecule)
constant: B14 constant with N324R
B16: equine IgG1 Y436V (antibody, part only; not given: variable domains, not shown: another chain or arm of the molecule)
constant: B14 constant with Y326V
B17: equine IgG1 N434G (antibody, part only; not given: variable domains, not shown: another chain or arm of the molecule)
constant: B14 constant with N324G
B18: equine IgG1 N434V (antibody, part only; not given: variable domains, not shown: another chain or arm of the molecule)
constant: B14 constant with N324V
B19: equine IgG1 Y436L (antibody, part only; not given: variable domains, not shown: another chain or arm of the molecule)
constant: B14 constant with Y326L
B20: equine IgG1 T286G (antibody, part only; not given: variable domains, not shown: another chain or arm of the molecule)
constant: B14 constant with T174G
B21: equine IgG1 Y436Q (antibody, part only; not given: variable domains, not shown: another chain or arm of the molecule)
constant: B14 constant with Y326Q
B22: equine IgG1 T286E (antibody, part only; not given: variable domains, not shown: another chain or arm of the molecule)
constant: B14 constant with T174E
B23: equine IgG1 N434S (antibody, part only; not given: variable domains, not shown: another chain or arm of the molecule)
constant: B14 constant with N324S
B24: equine IgG1 Y436G (antibody, part only; not given: variable domains, not shown: another chain or arm of the molecule)
constant: B14 constant with Y326G
B25: equine IgG1 Y436D (antibody, part only; not given: variable domains, not shown: another chain or arm of the molecule)
constant: B14 constant with Y326D
B26: equine IgG1 Y436R (antibody, part only; not given: variable domains, not shown: another chain or arm of the molecule)
constant: B14 constant with Y326R
B27: equine IgG1 N434M (antibody, part only; not given: Variable domains, not shown: another chain or arm of the molecule)
constant: B14 constant with N324M
B28: equine IgG1 T286D (antibody, part only; not given: variable domains, not shown: another chain or arm of the molecule)
constant: B14 constant with T174D
B29: equine IgG1 T286F (antibody, part only; not given: variable domains, not shown: another chain or arm of the molecule)
constant: B14 constant with T174F
B30: equine IgG1 Y436S (antibody, part only; not given: Variable domains, not shown: another chain or arm of the molecule)
constant: B14 constant with Y326S
B31: equine IgG1 N434K (antibody, part only; not given: variable domains, not shown: another chain or arm of the molecule)
constant: B14 constant with N324K
B32: equine IgG1 Y436M (antibody, part only; not given: variable domains, not shown: another chain or arm of the molecule)
constant: B14 constant with Y326M
B33: equine IgG1 N434I (antibody, part only; not given: variable domains, not shown: another chain or arm of the molecule)
constant: B14 constant with N324I
B34: equine IgG1 Y436T (antibody, part only; not given: variable domains, not shown: another chain or arm of the molecule)
constant: B14 constant with Y326T
B35: equine IgG1 Y436I (antibody, part only; not given: variable domains, not shown: another chain or arm of the molecule)
constant: B14 constant with Y326I
B36: equine IgG1 N434T (antibody, part only; not given: variable domains, not shown: another chain or arm of the molecule)
constant: B14 constant with N324T
B37: equine IgG1 Y436W (antibody, part only; not given: Variable domains, not shown: another chain or arm of the molecule)
constant: B14 constant with Y326W
B38: equine IgG1 N434H (antibody, part only; not given: Variable domains, not shown: another chain or arm of the molecule)
constant: B14 constant with N324H
B39: equine IgG1 Y436N (antibody, part only; not given: variable domains, not shown: another chain or arm of the molecule)
constant: B14 constant with Y326N
B40: equine IgG1 Y436C (antibody, part only; not given: Variable domains, not shown: another chain or arm of the molecule)
constant: B14 constant with Y326C
B41: equine IgG1 N434Q (antibody, part only; not given: variable domains, not shown: another chain or arm of the molecule)
constant: B14 constant with N324Q
B42: equine IgG1 N434P (antibody, part only; not given: variable domains, not shown: another chain or arm of the molecule)
constant: B14 constant with N324P
B43: equine IgG1 Y436F (antibody, part only; not given: variable domains, not shown: another chain or arm of the molecule)
constant: B14 constant with Y326F
B44: equine IgG1 Y436H (antibody, part only; not given: variable domains, not shown: another chain or arm of the molecule)
constant: B14 constant with Y326H
B45: equine IgG1 Y436K (antibody, part only; not given: variable domains, not shown: another chain or arm of the molecule)
constant: B14 constant with Y326K
B46: equine IgG1 T286H (antibody, part only; not given: variable domains, not shown: another chain or arm of the molecule)
constant: B14 constant with T174H
B47: equine IgG1 Y436E (antibody, part only; not given: variable domains, not shown: another chain or arm of the molecule)
constant: B14 constant with Y326E
B48: equine IgG1 N434Y (antibody, part only; not given: Variable domains, not shown: another chain or arm of the molecule)
constant: B14 constant with N324Y
B49: equine IgG1 Y436A (antibody, part only; not given: variable domains, not shown: another chain or arm of the molecule)
constant: B14 constant with Y326A

Where a chain is given by its changes, count along the chain named. Numbers in names are those of the source.

This assay addresses equine FcRn (large alpha subunit p51) / equine beta-2-microglobulin complex, biotinylated (equine) (UniProt P30441). Put plainly: SPR (Biacore), pH 6.
Sequence of UniProt P30441 (P30441 21-118, one chain of several): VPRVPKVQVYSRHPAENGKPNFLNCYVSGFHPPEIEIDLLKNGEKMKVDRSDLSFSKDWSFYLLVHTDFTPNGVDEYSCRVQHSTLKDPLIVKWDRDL
Molecule B1 registered a Kd of 22.5 nM.

As to B2, the Kd amounted to 2000 nM.

Molecule B3 gave a Kd of 41.1 nM.

For the molecule B4, the Kd came out at 35.6 nM.

Take B5: the Kd was 51.2 nM.

In the case of B6, the equilibrium dissociation constant (Kd) was 16.4 nM. Against the preceding molecule, the Kd is about 3.1-fold lower.

B7: the Kd was 23.5 nM.

B8 showed a Kd of 41.8 nM.

In turn, B9 displayed a dissociation constant (Kd) of 24.8 nM.

B10 gave an equilibrium dissociation constant (Kd) of 30.6 nM.

In turn, B11 showed a Kd of 28 nM.

B12 registered a dissociation constant Kd of 64.3 nM.

In turn, B13 displayed a Kd of 75.2 nM.

In the case of B14, the dissociation constant (Kd) was determined as 22.5 nM.

The molecule B15 yielded a dissociation constant (Kd) of 14 nM.

Turning to B16, the Kd was found to be 9.06 nM. Against the preceding molecule, the Kd is about 1.5-fold lower.

As for B17, the dissociation constant Kd was 5.57 nM.

For B18, the Kd stood at 31.2 nM.

As to B19, the Kd is 12.4 nM.

In the case of B20, the Kd was found to be 15 nM.

With B21, the dissociation constant (Kd) amounted to 14.6 nM. This Kd and that of the molecule before are within 1.5-fold of each other.

Regarding B22, the equilibrium dissociation constant (Kd) was determined as 21.9 nM. This Kd is about 1.5-fold higher than that of the molecule before.

B23 yielded a dissociation constant Kd of 10 nM.

The molecule B24 came in with a Kd of 22 nM. Against the preceding molecule, the Kd is about 2.2-fold higher.

In turn, B25 showed a dissociation constant Kd of 28.4 nM.

B26 registered a Kd of 25.6 nM. The Kd values of the last two molecules are within 1.5-fold of each other.

In the case of B27, the Kd was 29 nM.

B28: the dissociation constant (Kd) was found to be 23.9 nM.

Consider B29, for which the dissociation constant (Kd) amounted to 18.5 nM. The Kd values of the last two molecules are within 1.5-fold of each other.

For the molecule B30, the equilibrium dissociation constant (Kd) worked out at 13.5 nM.

Molecule B31 registered a Kd of 17.5 nM.

With B32, the equilibrium dissociation constant (Kd) was 11.1 nM.

B33: the Kd came out at 44.3 nM.

Molecule B34 had a dissociation constant Kd of 15.2 nM.

With B35, the Kd was 7.84 nM.

As to B36, the Kd is 19.6 nM.

B37: the Kd amounted to 10.2 nM.

Regarding B38, the Kd amounted to 4.1 nM. This Kd lies about 2.5-fold lower than the previous one.

B39 showed a Kd of 23.1 nM.

B40 displayed a Kd of 32.8 nM. This Kd and that of the molecule before are within 1.5-fold of each other.

Consider B41, for which the equilibrium dissociation constant (Kd) came to 12.8 nM.

In turn, B42 yielded a dissociation constant Kd of 25 nM.

In turn, B43 showed a dissociation constant (Kd) of 12.5 nM.

As to B44, the Kd turned out to be 19.1 nM.

Regarding B45, the equilibrium dissociation constant (Kd) came to 18 nM.

On to B46, for which the dissociation constant Kd is 22.4 nM.

As for B47, the Kd was 33.8 nM.

As to B48, the dissociation constant Kd turned out to be 2.15 nM. This Kd lies about 16-fold lower than the previous one.

On to B49, for which the dissociation constant Kd was determined as 20.4 nM. This Kd is about 9.5-fold higher than that of the molecule before.
